B3: ATG13^HORMA (1–197):TwinStrep-Flag (TSF)–ATG101 complex (complex, human)
chain 1: METDLNSQDRKDLDKFIKFFALKTVQVIVQARLGEKICTRSSSSPTGSDWFNLAIKDIPEVTHEAKKALAGQLPAVGRSMCVEISLKTSEGDSMELEIWCLEMNEKCDKEIKVSYTVYNRLSLLLKSLLAITRVTPAYRLSRKQGHEYVILYRIYFGEVQLSGLGEGFQTVRVGTVGTPVGTITLSCAYRINLAFMS
chain 2: MNCRSEVLEVSVEGRQVEEAMLAVLHTVLLHRSTGKFHYKKEGTYSIGTVGTQDVDCDFIDFTYVRVSSEELDRALRKVVGEFKDALRNSGGDGLGQMSLEFYQKKKSRWPFSDECIPWEVWTVKVHVVALATEQERQICREKVGEKLCEKIINIVEVMNRHEYLPKMPTQSEVDNVFDTGLRDVQPYLYKISFQITDALGTSVTTTMRRLIKDTLAL
notes: ATG101, human; Heterodimer of two HORMA domains formed beforehand by co-expression; also called ATG13^HORMA:ATG101; source: HEK GnTi- cells, transfected, purified (Strep-Tactin resin, Superdex 200); not shown: TwinStrep-Flag (TSF), N-terminal, kept
B4: ATG13^HORMA (1–197), no tag (domain or fragment, human, UniProt O75143 1-197, looked up)
chain: METDLNSQDRKDLDKFIKFFALKTVQVIVQARLGEKICTRSSSSPTGSDWFNLAIKDIPEVTHEAKKALAGQLPAVGRSMCVEISLKTSEGDSMELEIWCLEMNEKCDKEIKVSYTVYNRLSLLLKSLLAITRVTPAYRLSRKQGHEYVILYRIYFGEVQLSGLGEGFQTVRVGTVGTPVGTITLSCAYRINLAFMS

Details in all cases: both partners purified
Test [1] addresses B4. Put plainly: crystal structure; ATG9 HDIR (828–839)–fused ATG101 (1–198):ATG13 (1–197) complex, 6 mg/ml; sitting drop, 288 K, 0.1 M Hepes pH 7.5, 0.2 M NaCl, 12% PEG8000; 2.4 Å.
The target of test [2] is B3. Put plainly: pull-down; recombinant MBP-ATG9A constructs (1.2 μM) on amylose resin with TSF-ATG101:ATG13 (1–197) complex (3 μM), 4°C overnight, ITC buffer (25 mM Hepes pH 7.5, 150 mM NaCl, 1 mM MgCl2, 1 mM TCEP); full-length MBP-ATG9A in DDM/CHS micelles (0.05% DDM/CHS); SDS-PAGE.
Test [3] concerns the target T1, MBP-ATG9A (full-length autophagy-related protein 9A) (human, UniProt Q7Z3C6 1-839).
T1 construct: In detergent (DDM/CHS) micelles; also called wild-type MBP-ATG9A; ATG9A wild type (WT); source: HEK GnTi- cells, transfected; not shown: MBP, N-terminal, kept
T1 sequence (looked up): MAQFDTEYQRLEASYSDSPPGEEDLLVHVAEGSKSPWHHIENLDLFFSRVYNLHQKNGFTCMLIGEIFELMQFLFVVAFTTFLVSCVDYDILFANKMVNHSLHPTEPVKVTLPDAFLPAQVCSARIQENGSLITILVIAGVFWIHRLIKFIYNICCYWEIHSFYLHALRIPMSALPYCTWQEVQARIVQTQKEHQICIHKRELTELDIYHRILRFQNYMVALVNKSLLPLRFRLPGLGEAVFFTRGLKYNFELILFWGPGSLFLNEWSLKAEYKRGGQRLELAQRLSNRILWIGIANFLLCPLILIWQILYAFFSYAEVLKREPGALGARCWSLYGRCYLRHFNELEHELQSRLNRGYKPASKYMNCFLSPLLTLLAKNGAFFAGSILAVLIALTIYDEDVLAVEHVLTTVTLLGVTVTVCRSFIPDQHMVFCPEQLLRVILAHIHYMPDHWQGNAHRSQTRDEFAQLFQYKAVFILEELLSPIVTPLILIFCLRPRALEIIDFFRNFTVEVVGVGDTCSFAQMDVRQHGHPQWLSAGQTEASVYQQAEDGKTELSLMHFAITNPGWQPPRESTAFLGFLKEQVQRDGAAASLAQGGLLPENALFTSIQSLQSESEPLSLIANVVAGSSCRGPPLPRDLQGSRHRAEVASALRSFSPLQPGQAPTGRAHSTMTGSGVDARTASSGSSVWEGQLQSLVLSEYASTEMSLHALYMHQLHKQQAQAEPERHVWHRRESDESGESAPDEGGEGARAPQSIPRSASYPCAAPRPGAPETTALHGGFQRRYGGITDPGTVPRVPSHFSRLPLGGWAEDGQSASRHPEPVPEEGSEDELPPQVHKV
The description is as above.

Test [4] has as its target T2, ATG101 (1–198) as in the crystallised fusion (human, UniProt Q9BSB4 1-198).
T2 construct: ATG101, human, residues 1-198; written on its own for the pairs that touch; also called ATG101 HORMA domain; source: HEK 293GnTi cells, as the C-terminal part of the fusion m32
T2 sequence (looked up): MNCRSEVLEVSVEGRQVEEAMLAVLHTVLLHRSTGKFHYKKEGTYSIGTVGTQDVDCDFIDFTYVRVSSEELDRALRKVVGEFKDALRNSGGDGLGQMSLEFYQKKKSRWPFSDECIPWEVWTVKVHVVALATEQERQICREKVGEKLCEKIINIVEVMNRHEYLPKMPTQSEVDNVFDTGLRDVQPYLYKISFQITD
As to the kind of experiment: crystal structure; ATG9 HDIR (828–839)–fused ATG101 (1–198):ATG13 (1–197) complex, 6 mg/ml; sitting drop, 288 K, 0.1 M Hepes pH 7.5, 0.2 M NaCl, 12% PEG8000; 2.4 Å.

B1: ATG9A HDIR (828–839)–GSDEA–ATG101 (1–198) fusion construct (other, human)
chain: SEDELPPQVHKVGSDEAMNCRSEVLEVSVEGRQVEEAMLAVLHTVLLHRSTGKFHYKKEGTYSIGTVGTQDVDCDFIDFTYVRVSSEELDRALRKVVGEFKDALRNSGGDGLGQMSLEFYQKKKSRWPFSDECIPWEVWTVKVHVVALATEQERQICREKVGEKLCEKIINIVEVMNRHEYLPKMPTQSEVDNVFDTGLRDVQPYLYKISFQITD
notes: flexible linker of five residues; ATG101, human, residues 1-198; also called ATG9A HDIR-ATG101 fusion construct; not shown: GST, N-terminal, cleaved
Turning to B1, in test [1], the binding result is “binds”.

B2: MBP-ATG9A (692–839), monomeric (domain or fragment, human, UniProt Q7Z3C6 692-839, looked up)
chain: QLQSLVLSEYASTEMSLHALYMHQLHKQQAQAEPERHVWHRRESDESGESAPDEGGEGARAPQSIPRSASYPCAAPRPGAPETTALHGGFQRRYGGITDPGTVPRVPSHFSRLPLGGWAEDGQSASRHPEPVPEEGSEDELPPQVHKV
notes: source: HEK GnTi- cells, transfected, purified (amylose resin, Superose 6); not shown: MBP, N-terminal, kept
With B2, the binding result in test [2] is reported as “binds”. B3: in test [3], the binding result is “binds”. As to B4, the binding result in test [4] is on record as “binds”.

Values taken from publication PMC9931213, “Structural basis for ATG9A recruitment to the ULK1 complex in mitophagy initiation” (Science Advances, 2023).
